Data: IntAct's records for PubMed 30545121

B1: Ribosome maturation protein SBDS (Homo sapiens), Q9Y3A5 (parent)
chain: MSIFTPTNQIRLTNVAVVRMKRAGKRFEIACYKNKVVGWRSGVEKDLDEVLQTHSVFVNVSKGQVAKKEDLISAFGTDDQTEICKQILTKGEVQVSDKERHTQLEQMFRDIATIVADKCVNPETKRPYTVILIERAMKDIHYSVKTNKSTKQQALEVIKQLKEKMKIERAHMRLRFILPVNEGKKLKEKLKPLIKVIESEDYGQQLEIVCLIDPGCFREIDELIKKETKGKGSLEVLNLKDVEEGDEKFE
partner: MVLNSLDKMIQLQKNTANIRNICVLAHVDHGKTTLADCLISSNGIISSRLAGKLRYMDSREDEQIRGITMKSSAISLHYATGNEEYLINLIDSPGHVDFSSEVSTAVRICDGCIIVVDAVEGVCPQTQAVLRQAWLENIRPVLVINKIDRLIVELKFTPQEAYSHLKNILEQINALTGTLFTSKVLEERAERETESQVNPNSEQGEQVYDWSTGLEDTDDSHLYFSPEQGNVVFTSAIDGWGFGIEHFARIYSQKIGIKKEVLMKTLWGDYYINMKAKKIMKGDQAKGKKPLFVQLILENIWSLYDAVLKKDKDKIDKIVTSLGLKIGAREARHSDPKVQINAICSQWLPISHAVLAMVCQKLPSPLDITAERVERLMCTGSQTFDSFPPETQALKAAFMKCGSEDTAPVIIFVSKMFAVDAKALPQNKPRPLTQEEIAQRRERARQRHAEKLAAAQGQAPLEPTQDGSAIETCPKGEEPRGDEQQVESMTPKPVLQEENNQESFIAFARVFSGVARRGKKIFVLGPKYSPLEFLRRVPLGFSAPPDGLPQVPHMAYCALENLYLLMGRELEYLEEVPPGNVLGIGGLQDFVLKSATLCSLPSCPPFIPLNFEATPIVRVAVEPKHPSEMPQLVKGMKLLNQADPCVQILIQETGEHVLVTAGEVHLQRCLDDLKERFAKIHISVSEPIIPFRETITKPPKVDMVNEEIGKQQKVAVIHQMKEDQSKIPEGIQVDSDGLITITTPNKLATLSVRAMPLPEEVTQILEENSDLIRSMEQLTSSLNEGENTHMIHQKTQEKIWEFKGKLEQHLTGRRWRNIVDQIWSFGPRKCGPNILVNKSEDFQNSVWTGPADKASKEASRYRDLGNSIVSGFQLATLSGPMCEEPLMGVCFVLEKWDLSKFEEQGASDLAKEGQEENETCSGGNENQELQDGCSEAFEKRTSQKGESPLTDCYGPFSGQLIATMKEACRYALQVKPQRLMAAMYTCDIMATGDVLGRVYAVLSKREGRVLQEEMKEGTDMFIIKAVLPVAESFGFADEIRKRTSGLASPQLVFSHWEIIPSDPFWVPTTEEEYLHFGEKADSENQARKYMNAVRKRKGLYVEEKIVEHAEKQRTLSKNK

Variants of: B1
Settings: with efl1_human EFL1, Q7Z2Z2

Variant	effect of a mutation on the interaction
I167T	decreasing interaction strength
R19Q	decreasing interaction strength
R126T	decreasing interaction strength
S143L	disrupting interaction strength
R175W	decreasing interaction strength
K67E	decreasing interaction strength
I212T	disrupting interaction strength
